The record followed here is PMC2954210, “Structure of an essential bacterial protein YeaZ (TM0874) from Thermotoga maritima at 2.5 Å resolution” (Acta Crystallographica Section F: Structural Biology and …, 2009).

The data set deals with the molecule itself. The data set is described as follows: SEC-MALS; Superdex 200 column coupled with miniDAWN static light-scattering and Optilab refractive-index detectors; 20 mM Tris-HCl pH 7.9, 150 mM NaCl, 0.02% sodium azide.

B1: YeaZ (TM0874) from Thermotoga maritima (natural protein, UniProt Q9WZX7 1-206, looked up)
chain: MNVLALDTSQRIRIGLRKGEDLFEISYTGEKKHAEILPVVVKKLLDELDLKVKDLDVVGVGIGPGGLTGLRVGIATVVGLVSPYDIPVAPLNSFEMTAKSCPADGVVLVARRARKGYHYCAVYLKDKGLNPLKEPSVVSDEELEEITKEFSPKIVLKDDLLISPAVLVEESERLFREKKTIHYYEIEPLYLQKSIAELNWEKKKRG
modifications: selenomethionine derivative
notes: YeaZ (TM0874), Thermotoga maritima, full-length protein, residues 1-206; Swiss-Prot Q9WZX7; Cloned into plasmid pMH4; In the crystal model residues 1-193 (chain A) and 0-187 (chain B) are ordered; residue 0 is the last residue of the His tag; also called TmYeaZ; His-tagged SeMet-TmYeaZ; source: E. coli GeneHogs, selenomethionine-containing medium, purified (nickel-chelating resin, Resource Q)
Turning to B1, the “stoichiometry N” value amounted to 2.

A word on the stoichiometry N: it is the number of molecules, sites or subunits per partner or assembly.
